Measurements reported in US20040132067, “Systematic evolution of ligands by exponential enrichment: photoselection of nucleic acid ligands and solution selex” (SOMALOGIC, INC., published 2004).

How the values were obtained:
HIV-1 Rev [1] = molecular target: T1, HIV-1 Rev (Human immunodeficiency virus 1, UniProt P04618 P04618:1-116); test: photo-independent crosslinking seen at 50 nM Rev in 1:100 weight ratio with human nuclear extract
Description: Trunc24 (SEQ ID NO:59) photo-independent crosslinking with HIV-1 Rev in the presence of human nuclear extracts was determined as follows: Trunc24 RNA, nuclear extracts, and Rev protein were combined and incubated on ice for 10 min. Samples were mixed 1:1 with 8 M urea loading buffer and placed on a 7 M urea, 8% polyacrylamide gel for analysis, XL indicates the nucleoprotein complex, RNA indicates free trunc24 RNA.

HIV-1 Rev [2] = molecular target: T1, HIV-1 Rev; test: photocrosslinking 325 nm, 4 min, 500 nM protein, 20 ug tRNA, 37 C
From the text: The sequences are aligned for maximum homology to the 6a sequence (SEQ ID NO:5). Underlines represent potential base pairing as indicted by computer RNA folding algorithms. Dashed underlines represent the 6a ligand “bubble” motif. Sequences flanked by underline represent either loop or bulge regions. Dashes are placed to maximize alignment with 6a. * denotes that two isolates were obtained. +indicates laser independent crosslinking and—denotes the lack of laser independent crosslinking to HIV-1 Rev. […] FIGS. 18 and 19 show the sequence of Trunc2 (SEQ ID NO:58) and Trunc24 (SEQ-ID NO:59) and the specificity results. 500 nM protein, 20 μg tRNA, and approximately 1 nM of kinased trunc2 RNA were incubated for 10 min. at 37° C. and irradiated for 4 min at 325 nm. t2-trunc2 RNA irradiated without added protein; t2Rev1/O′-trunc2 RNA, HIV-1 Rev protein and 0 min. of irradiation; t2/Rev1/4′-trunc2 RNA, HIV-1 Rev protein, adn 4 min. of irradiation; t2/Rev1/4′/PK-trunc2 RNA, HIV-1 Rev protein, 4 min. or irradiation, and proteinase K treated as in FIG. 1; t2/Rev2/4′-trunc2 RNA, HIV-2 Rev protein, and 4 min. of irradiation; t2/Tat/4′-trunc2 RNA, HIV-1 Tat protein, and 4 min. of irradiation. R-free RNA; XL-crosslinked nucleoprotein complex.

T1 sequence (P04618 whole entry, one chain of several): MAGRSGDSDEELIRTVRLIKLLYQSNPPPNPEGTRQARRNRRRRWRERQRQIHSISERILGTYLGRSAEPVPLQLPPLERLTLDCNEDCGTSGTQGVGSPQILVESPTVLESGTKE

Binder	binding result (HIV-1 Rev [1])	binding result (HIV-1 Rev [2])
GGGGAUUAACAGGCACACCUGUUAACCCU (ssRNA) [trunc24]	binds	
GGGUGUAUGAAACACCACGUGUGUUUCCACUC (ssRNA, 5-iodouracil at all U) [trunc2]		binds
